# Patent WO2009055074A2 (dated 2009)
# Changes are numbered by the printed parent chain.
# B1: S1R3C1_CS_1D3 (scFv, V domains shown)
# VH: QVQLQESGPGLVKPSQTLSLTCGISGDSVSSNSAAWNWIRQSPTRGLEWLGRTYYRSSWYHNYAPSMNSRLTIIADTSKNQFSLQLNSVTPEDTAVYYCASGWAFDVWGRGTLVTVSS
# VL: QSVLTQPPSASGSPGQSVTISCTGTSSDVGAYDFVSWYQQHPGKAPKLMIYEVNKRPSGVPDRFSGSKSGNTASLTVSGLQAEDEADYYCSSYAGSKNLLFGGGTKLTVLG
# notes: also called Her2_S1R3C1_CS_1D3
# B2: S1R3B2_BMV_1G2 (scFv, V domains shown)
# VH: QVQLVQSGAEVKKPGSSVKVSCKASGYTFTSYGISWVRQAPGQGLEWMGWISAYNGNTNYAQKLQGRVTMTTDTSTSTAYMELRSLRSDDTAVYYCARVPGVSGSYPDYYYMDVWGKGTLVTVSS
# VL: DIQMTQSPSTLSASIGDRVTITCRASEGIYHWLAWYQQKPGKAPKLLIYKASSLASGAPSRFSGSGSGTDFTLTISSLQPDDFATYYCQQYSNYPLTFGGGTKLEIKR
# notes: also called Her2_S1R3B2_BMV_1G2
# B3: S1R3C1_CS_1A6 (scFv, V domains shown)
# VH: EVQLVQSGAEVKKPGESLKISCKGFGYNFRSAWIGWVRQMPGKGLEWMGVIYPGDSDVRYSPSFQGQVTISADKSISTAYLQWSSLKASDTAMYYCTRPVGQWVDSDYWGKGTLVTVSS
# VL: QSVLTQPPSASGTPGQRVTISCSGSSSNIGTNTVNWYQQLPGTAPKLLIYTSNQRPSGVPARFSASNSGTSASLAISGLRSEDEADYYCAAWDDKLSGAVFGGGTKLTVLG
# notes: also called Her2_S1R3C1_CS_1A6
# B4: S1R3B2_DP47_1E8 (scFv, V domains shown)
# VH: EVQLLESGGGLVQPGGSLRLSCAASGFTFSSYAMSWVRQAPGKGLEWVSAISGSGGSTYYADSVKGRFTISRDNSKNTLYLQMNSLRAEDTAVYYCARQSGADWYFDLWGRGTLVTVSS
# VL: QAVLTQPSAVSGAPGQRVTISCTGTSSNIGTNYLVHWYQQRPGTAPQLLVSGNNTRPSGVTDRFSVSKSATSASLAITGLQAEDEADYYCQTYDINLRVWVFGGGTKVTVLG
# notes: also called Her2_S1R3B2_DP47_1E8
# B5: S1R2A_CS_1D3 (scFv, V domains shown)
# VH: EVQLVQSGAEVKKPGASVKVSCKASGYSFTAFYIHWVRQAPGQGLEYLGWIDPNTGATKYAQRFQGRVIMTWDTSITTATMELSRLTSDDSAVYYCVRDLREWGYELSVEYWGRGTLVTVSS
# VL: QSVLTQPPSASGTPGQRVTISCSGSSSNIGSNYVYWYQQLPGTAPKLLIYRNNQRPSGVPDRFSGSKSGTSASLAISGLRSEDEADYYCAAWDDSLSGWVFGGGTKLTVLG
# B6: S1R3B2_BMV_1H5 (scFv, V domains shown)
# VH: EVQLVQSGGGLVRPGGSLRLSCAASGFSFSDYYMTWIRQIPGKGLEWVAVIWNDGSDRYYADSVKGRFTISRDNSKNTLFLQMSSLRDEDTALYYCVRGGPTASSGFDYWGRGTLVTVSS
# VL: SSELTQPASVSGSPGQSITISCTGTSSDVGGYNYVSWYLQHPGKAPKLMIYEGSKRPSGVSNRFSGSKSGNTASLTISGLQAEDEADYYCSSYTTRSTRVFGGGTKLTVLG
# notes: also called Her2_S1R3B2_BMV_1H5
# B7: S1R3B2_DP47_1E10 (scFv, V domains shown)
# VH: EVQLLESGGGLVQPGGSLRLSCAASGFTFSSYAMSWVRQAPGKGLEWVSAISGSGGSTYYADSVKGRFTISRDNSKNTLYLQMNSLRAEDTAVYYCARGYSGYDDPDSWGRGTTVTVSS
# VL: HVILTQPPSTSGTPGQTVTISCSGSSSNIGSHYVYWYQQLPGTAPKLLIYRNNQRPSGVPDRFSGSKSGTSASLAISGLRSEDETDYYCAAWDDSLSGRVFGTGTKLTVLG
# notes: also called Her2_S1R3B2_DP47_1E10
# B8: S1R2C_CS_1H12 (scFv, V domains shown)
# VH: EVQLVETGGGLVQPGGSLRLSCAASGFTFSSYGMNWVRQAPGKGLEWVSYISSSGNTIFYADSVKGRFTISRDSAKNSVSLQMNSLRDEDTAVYYCASYYSYYYGMDAWGQGTMVTV
# VL: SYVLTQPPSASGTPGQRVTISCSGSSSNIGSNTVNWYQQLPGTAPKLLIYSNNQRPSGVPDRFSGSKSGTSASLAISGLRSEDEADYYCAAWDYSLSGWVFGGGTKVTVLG
# B9: S1R3A1_CS_1B12 (scFv, V domains shown)
# VH: QVQLVQSGAEVKKPGASVKVSCQASGYTFSGHYMHLVRQAPGQGLEWMGWIHPTSGGTTYAQKFQGRVVMTRDTSISTAYMELSRLTSDDTAVYYCARMSQNYDAFDIWGQGTMVTVSS
# VL: QAVLTQPSSVSGAPGQRVTISCTGSSSNIGAGYDVNWYQQFPGTAPKIIVYGDRPSGAPDRFSGSKSGTSASLAITGLRAEDEADYYCQSWDSRLSSYVFGTGTKVTVLG
# notes: scFv (one chain), soluble from the bacterial periplasm in the screening; also called Her2_S1R3A1_CS_1B12
# B10: S1R3C1_BMV_1H11 (scFv, V domains shown)
# VH: GVQLVESGGGLVKPGGSLRLSCAASGFTFSSYNMNWVRQAPGKGLEWVSAISGSGGSTYYADSVTGRFTISRDNSKNTLYLQMNSLRAEDTAVYYCAKDTSGWYGDGMDVWGRGTLVTVSS
# VL: B2 VL
# notes: scFv (one chain), soluble from the bacterial periplasm in the screening; also called Her2_S1R3C1_BMV_1H11
# B11: S1R3B1_BMV_1A10 (scFv, V domains shown)
# VH: QMQLVQSGGGVVQPGRSLRLSCAASGFTFSSYGMHWVRQAPGKGLEWVAVISYDGSIKYYADSVKGRFTISRDNSKNTLYLQMNSLRAEDTGVYYCSKDRYSSGWYSSDAFDIWGRGTMVTVSS
# VL: SSELTQDPAVSVALGQTVRITCQGDSLRSYYASWYQQKPGQAPVLVIYGKNNRPSGIPDRFSGSSSGNTASLTITGAQAEDEADYYCHSRDSSGNHVLFGGGTKLTVLG
# notes: scFv (one chain), soluble from the bacterial periplasm in the screening; also called Her2_S1R3B1_BMV_1A10
# B12: S1R3B1_BMV_1H11 (scFv, V domains shown)
# VH: EVQLVQSGGGLVKPGGSLRLSCAASGFTFSSYGMHWVRQAPGKGLEWVAGIFYDGGNKYYADSVKGRFTISRDNSKNTLYLQMNSLRAEDTAVYYCARDRGYYYMDVWGKGTTVTVSS
# VL: QSVLTQPPSVSGAPGQRVTISCTGRSSNIGAGHDVHWYQQLPGTAPKLLIYGDSNRPSGVPDRFSGSRSGTSASLAITGLQAEDEADYYCQSYDSSLRGSVFGGGTKVTVLG
# notes: scFv (one chain), soluble from the bacterial periplasm in the screening; also called Her2_S1R3B1_BMV_1H11
# B13: S1R3C1_DP47_1H1 (scFv, V domains shown)
# VH: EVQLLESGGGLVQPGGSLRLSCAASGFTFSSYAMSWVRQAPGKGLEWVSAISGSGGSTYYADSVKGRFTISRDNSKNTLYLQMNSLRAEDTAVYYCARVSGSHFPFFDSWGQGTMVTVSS
# VL: QSVLTQPPSVSVAPGQTARITCGGDKIGHKSVHWYQQKPGQAPVLLVYDDRKRPSGIPERFSGSNSGNTATLTISRVEAGDEAAYHCQVWDRSSDPYVFGTGTKVTVLG
# notes: scFv (one chain), soluble from the bacterial periplasm in the screening; also called Her2_S1R3C1_DP47_1H1
# B14: S1R3A1_DP47_1A6 (scFv, V domains shown)
# VH: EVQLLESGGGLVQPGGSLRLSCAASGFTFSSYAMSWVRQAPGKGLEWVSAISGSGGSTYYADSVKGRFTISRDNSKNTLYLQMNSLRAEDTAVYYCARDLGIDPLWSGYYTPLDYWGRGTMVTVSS
# VL: HVILTQPPSASGTPGQRVTISCSGSSSNIGSNSVSWYQQLPGTAPKLLMYTNNQRPSGVPDRFSGSKSGTSASLAISGLQSEDEADYYCATWDASLNTWVFGGGTKVTVLG
# notes: scFv (one chain), soluble from the bacterial periplasm in the screening; also called Her2_S1R3A1_DP47_1A6
# B15: S1R3A1_BMV_1G4 (scFv, V domains shown)
# VH: QVQLVESGAEVKKPGASVKVSCKASGYTFTSYDINWVRQAPGQRLEWMGWINAGNGNTKYSQKFQGRVTITRDTSASTAYMELRSLRSDDTAVYYCARGRSYGHPYYFDYWGQGTLVTVSS
# VL: B6 VL with S1Q, E3V, L39Q
# notes: scFv (one chain), soluble from the bacterial periplasm in the screening; also called Her2_S1R3A1_BMV_1G4
# B16: S1R3B1_BMV_1G11 (scFv, V domains shown)
# VH: QVQLVQSGGGLVQPGGSLRLSCAASGFTFSTYAMSWARQAPGKGLEWVSSISGDGGRILDADSAKGRFTISRDNSKNTLYLQMNGLRVEDTALYYCARADGNYWGRGTMVTVSS
# VL: B6 VL with S1Q, E3V, L39Q
# notes: scFv (one chain), soluble from the bacterial periplasm in the screening; also called Her2_S1R3B1_BMV_1G11
# B17: S1R3B1_BMV_1A1 (scFv, V domains shown)
# VH: EVQLVQSGAEVKEPGASVKVSCKASGYDFSNYGFSWVRQAPGQGLEWMGWISSYNGYTNYAQRLQGRVTMTTDTSTSTAYMELRSLRSDDTAVYYCARDRGLGNWYFDLWGQGTLVTVSS
# VL: B6 VL with S1Q, E3V, L39Q
# notes: scFv (one chain), soluble from the bacterial periplasm in the screening; also called Her2_S1R3B1_BMV_1A1
# Biological target: T1, extracellular domain (ECD) of Her2 (ErbB2) (human, UniProt P04626 23-652)
# T1 construct: Target as named in the sentence on the thirty-one scFvs; also called ECD region of Her2
# Assay: three rounds of selection and screening ELISA, scFv on phage
row,binding result,Binder
1,binds,B1
2,binds,B2
3,binds,B3
4,binds,B4
5,binds,B5
6,binds,B6
7,binds,B7
8,binds,B8

# Biological target: T1, extracellular domain (ECD) of Her2 …
# Assay: three rounds of selection and screening ELISA, soluble periplasmic scFv
row,binding result,Binder
1,binds,B9
2,binds,B10
3,binds,B11
4,binds,B12
5,binds,B13
6,binds,B14
7,binds,B15
8,binds,B16
9,binds,B17
